These are literature values, as cited in paper PMC11475284.

As usually defined, the pKd is the Kd on a negative log10 scale, so that one unit is a factor of ten.

pKd: −log10 of the molar value. “And” between values parts separate entries of the source, which are not always exact repeats. Identical values can stand only once.

The target of the data set is Axin1 DAX (Homo sapiens) (UniProt O15169). Nature of the data set: SEC-MALS.

In the case of Axin1 DAX (from UniProt O15169), the pKd is 6.05 and 6.62.
